Measured values: patent US20140274782A1, “AFFINITY REAGENTS AND METHODS FOR DETECTION, PURIFICATION, AND PROTEOMIC ANALYSIS OF METHYLATED PROTEINS” (The Board of Trustees of the Leland Stanford Junior …, priority 2013, published 2014)

Assays:
Assay in all cases: ProtoArray, G9a array SNR minus GST array SNR
[1] = molecular target: AP1S1, G9a-methylated (human) (UniProt P61966)
[2] = molecular target: BLCAP, G9a-methylated (human) (UniProt P62952)
[3] = molecular target: C11orf73, G9a-methylated (human) (UniProt Q53FT3)
[4] = molecular target: CALN1, G9a-methylated (human) (UniProt Q9BXU9)
[5] = molecular target: CLDN15, G9a-methylated (human) (UniProt P56746)
[6] = molecular target: CRYZL1, G9a-methylated (human) (UniProt O95825)
Chain of CRYZL1, G9a-methylated (human) (O95825 whole entry): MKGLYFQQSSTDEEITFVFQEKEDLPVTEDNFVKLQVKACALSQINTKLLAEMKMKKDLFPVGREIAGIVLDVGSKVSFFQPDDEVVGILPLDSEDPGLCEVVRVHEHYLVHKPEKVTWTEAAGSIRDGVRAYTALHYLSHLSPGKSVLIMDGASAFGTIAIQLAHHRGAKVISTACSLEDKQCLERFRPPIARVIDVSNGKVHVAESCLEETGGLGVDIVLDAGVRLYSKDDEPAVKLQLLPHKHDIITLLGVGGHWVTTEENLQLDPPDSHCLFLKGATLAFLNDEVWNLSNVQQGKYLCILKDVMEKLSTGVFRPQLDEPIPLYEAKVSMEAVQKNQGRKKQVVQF

[7] = molecular target: CUTC, G9a-methylated (human) (UniProt Q9NTM9)
[8] = molecular target: DNTT, G9a-methylated (human) (UniProt P04053)
Chain of DNTT, G9a-methylated (human) (P04053 whole entry): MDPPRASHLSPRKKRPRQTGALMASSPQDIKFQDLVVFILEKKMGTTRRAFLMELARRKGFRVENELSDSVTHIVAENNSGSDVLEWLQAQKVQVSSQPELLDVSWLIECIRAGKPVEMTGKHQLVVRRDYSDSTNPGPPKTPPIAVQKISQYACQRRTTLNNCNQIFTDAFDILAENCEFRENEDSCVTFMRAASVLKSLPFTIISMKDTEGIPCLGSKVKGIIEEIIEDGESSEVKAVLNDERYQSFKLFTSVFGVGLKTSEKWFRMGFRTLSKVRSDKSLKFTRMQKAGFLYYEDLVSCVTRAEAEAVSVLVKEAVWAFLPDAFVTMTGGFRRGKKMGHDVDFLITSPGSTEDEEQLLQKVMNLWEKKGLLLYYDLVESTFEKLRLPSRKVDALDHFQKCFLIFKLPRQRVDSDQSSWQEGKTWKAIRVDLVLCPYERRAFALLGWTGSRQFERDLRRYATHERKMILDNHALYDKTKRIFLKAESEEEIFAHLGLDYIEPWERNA

[9] = molecular target: DYNC2LI1, G9a-methylated (human) (UniProt Q8TCX1)
[10] = molecular target: FKBP14, G9a-methylated (human) (UniProt Q9NWM8)
Chain of FKBP14, G9a-methylated (human) (Q9NWM8 20-211 limits assumed): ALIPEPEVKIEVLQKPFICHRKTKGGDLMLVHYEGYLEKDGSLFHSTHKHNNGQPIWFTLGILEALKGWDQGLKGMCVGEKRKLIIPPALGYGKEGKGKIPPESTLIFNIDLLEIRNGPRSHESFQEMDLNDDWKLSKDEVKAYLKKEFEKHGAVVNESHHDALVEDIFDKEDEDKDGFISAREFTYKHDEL

[11] = molecular target: FTH1 (hit 104), G9a-methylated (human) (UniProt P02794)
[12] = molecular target: FTH1 (hit 109), G9a-methylated (human) (UniProt P02794)
[13] = molecular target: FTL, G9a-methylated (human) (UniProt P02792)
[14] = molecular target: GHRL, G9a-methylated (human) (UniProt Q9UBU3)
[15] = molecular target: GNPTAB, G9a-methylated (human) (UniProt Q3T906)
Chain of GNPTAB, G9a-methylated (human) (Q3T906 whole entry): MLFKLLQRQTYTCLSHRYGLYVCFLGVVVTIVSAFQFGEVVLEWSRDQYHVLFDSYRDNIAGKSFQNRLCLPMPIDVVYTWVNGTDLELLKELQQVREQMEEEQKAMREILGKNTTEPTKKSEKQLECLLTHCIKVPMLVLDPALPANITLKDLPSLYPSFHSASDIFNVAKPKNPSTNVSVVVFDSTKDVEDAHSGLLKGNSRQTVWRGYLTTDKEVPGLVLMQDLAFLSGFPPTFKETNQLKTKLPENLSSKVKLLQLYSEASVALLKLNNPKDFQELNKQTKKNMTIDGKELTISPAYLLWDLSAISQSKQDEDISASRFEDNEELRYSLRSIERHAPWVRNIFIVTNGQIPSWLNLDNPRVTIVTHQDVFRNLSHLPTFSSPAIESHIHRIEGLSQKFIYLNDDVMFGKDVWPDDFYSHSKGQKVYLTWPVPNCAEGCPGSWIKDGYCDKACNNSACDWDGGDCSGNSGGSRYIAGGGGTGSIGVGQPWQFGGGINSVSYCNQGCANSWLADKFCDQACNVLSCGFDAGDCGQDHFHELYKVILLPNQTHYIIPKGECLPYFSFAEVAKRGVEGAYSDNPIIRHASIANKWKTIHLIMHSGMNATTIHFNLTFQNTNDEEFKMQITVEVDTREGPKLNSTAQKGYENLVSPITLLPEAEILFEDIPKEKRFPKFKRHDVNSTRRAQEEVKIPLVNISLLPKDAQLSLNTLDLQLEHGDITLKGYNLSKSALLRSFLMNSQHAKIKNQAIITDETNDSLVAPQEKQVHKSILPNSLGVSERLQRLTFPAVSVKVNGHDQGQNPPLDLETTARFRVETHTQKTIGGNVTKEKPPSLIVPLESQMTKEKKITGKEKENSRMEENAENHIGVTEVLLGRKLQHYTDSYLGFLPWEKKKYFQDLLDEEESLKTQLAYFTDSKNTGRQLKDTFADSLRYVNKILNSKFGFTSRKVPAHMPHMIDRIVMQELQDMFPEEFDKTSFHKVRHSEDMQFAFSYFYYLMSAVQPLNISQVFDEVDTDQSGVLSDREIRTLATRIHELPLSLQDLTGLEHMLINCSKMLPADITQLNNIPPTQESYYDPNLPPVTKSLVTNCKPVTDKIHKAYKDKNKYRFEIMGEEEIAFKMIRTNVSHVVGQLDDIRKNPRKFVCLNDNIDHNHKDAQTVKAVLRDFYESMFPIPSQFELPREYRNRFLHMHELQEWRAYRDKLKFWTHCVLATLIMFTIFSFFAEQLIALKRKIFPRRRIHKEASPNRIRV

[16] = molecular target: HPCAL4, G9a-methylated (human) (UniProt Q9UM19)
Chain of HPCAL4, G9a-methylated (human) (Q9UM19 whole entry): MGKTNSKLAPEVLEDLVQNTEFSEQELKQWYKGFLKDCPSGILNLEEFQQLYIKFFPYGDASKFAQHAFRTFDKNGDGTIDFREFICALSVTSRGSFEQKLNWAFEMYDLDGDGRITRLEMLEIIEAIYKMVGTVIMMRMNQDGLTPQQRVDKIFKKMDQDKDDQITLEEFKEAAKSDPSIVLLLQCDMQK

[17] = molecular target: HS3ST1, G9a-methylated (human) (UniProt O14792)
[18] = molecular target: KCTD7, G9a-methylated (human) (UniProt Q96MP8)
Chain of KCTD7, G9a-methylated (human) (Q96MP8 whole entry): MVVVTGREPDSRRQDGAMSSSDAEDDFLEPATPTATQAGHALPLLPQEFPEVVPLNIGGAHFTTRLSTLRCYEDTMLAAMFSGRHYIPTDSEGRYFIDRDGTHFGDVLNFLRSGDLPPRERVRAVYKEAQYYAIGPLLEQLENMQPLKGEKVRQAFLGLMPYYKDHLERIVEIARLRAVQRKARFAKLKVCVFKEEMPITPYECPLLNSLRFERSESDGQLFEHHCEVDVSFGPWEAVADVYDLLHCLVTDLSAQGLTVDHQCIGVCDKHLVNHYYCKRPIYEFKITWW

[19] = molecular target: KRR1, G9a-methylated (human) (UniProt Q13601)
[20] = molecular target: MAGEH1, G9a-methylated (human) (UniProt Q9H213)
[21] = molecular target: MOBKL3, G9a-methylated (human) (UniProt Q9Y3A3)
Chain of MOBKL3, G9a-methylated (human) (Q9Y3A3 whole entry): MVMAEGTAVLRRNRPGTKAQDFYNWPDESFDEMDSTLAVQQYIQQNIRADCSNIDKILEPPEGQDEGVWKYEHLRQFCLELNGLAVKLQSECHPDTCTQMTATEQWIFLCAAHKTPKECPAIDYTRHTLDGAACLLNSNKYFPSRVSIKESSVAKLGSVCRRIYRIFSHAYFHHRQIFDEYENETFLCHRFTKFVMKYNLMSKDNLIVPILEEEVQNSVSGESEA

[22] = molecular target: MRPL21, G9a-methylated (human) (UniProt Q7Z2W9)
[23] = molecular target: Magmas, G9a-methylated (human) (UniProt Q9Y3D7)
Chain of Magmas, G9a-methylated (human) (Q9Y3D7 whole entry): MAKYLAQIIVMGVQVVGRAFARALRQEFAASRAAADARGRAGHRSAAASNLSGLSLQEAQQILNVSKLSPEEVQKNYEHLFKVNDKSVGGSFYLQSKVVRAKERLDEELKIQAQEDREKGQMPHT

[24] = molecular target: NME1, G9a-methylated (human) (UniProt P15531)
[25] = molecular target: NME7, G9a-methylated (human) (UniProt Q9Y5B8)
[26] = molecular target: PAEP, G9a-methylated (human) (UniProt P09466)
Chain of PAEP, G9a-methylated (human) (P09466 19-180 limits assumed): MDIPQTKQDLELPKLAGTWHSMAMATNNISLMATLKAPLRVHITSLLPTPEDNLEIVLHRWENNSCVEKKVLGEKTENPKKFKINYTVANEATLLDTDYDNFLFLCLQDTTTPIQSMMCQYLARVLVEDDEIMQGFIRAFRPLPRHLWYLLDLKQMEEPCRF

[27] = molecular target: PSMA8, G9a-methylated (human) (UniProt Q8TAA3)
[28] = molecular target: RAB33B, G9a-methylated (human) (UniProt Q9H082)
Chain of RAB33B, G9a-methylated (human) (Q9H082 whole entry): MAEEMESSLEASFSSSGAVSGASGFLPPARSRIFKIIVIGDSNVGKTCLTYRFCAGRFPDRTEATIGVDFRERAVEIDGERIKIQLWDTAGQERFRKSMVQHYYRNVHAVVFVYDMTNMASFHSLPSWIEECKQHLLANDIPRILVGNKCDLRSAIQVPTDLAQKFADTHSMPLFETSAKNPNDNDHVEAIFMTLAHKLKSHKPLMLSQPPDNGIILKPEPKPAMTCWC

[29] = molecular target: RDH11, G9a-methylated (human) (UniProt Q8TC12)
[30] = molecular target: RHBDD1, G9a-methylated (human) (UniProt Q8TEB9)
[31] = molecular target: RPL14, G9a-methylated (human) (UniProt P50914)
[32] = molecular target: SCGB1A1, G9a-methylated (human) (UniProt P11684)
Chain of SCGB1A1, G9a-methylated (human) (P11684 22-91 limits assumed): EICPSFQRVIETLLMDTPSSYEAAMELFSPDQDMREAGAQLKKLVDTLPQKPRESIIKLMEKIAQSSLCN

[33] = molecular target: SEC22B, G9a-methylated (human) (UniProt O75396)
Chain of SEC22B, G9a-methylated (human) (O75396 whole entry): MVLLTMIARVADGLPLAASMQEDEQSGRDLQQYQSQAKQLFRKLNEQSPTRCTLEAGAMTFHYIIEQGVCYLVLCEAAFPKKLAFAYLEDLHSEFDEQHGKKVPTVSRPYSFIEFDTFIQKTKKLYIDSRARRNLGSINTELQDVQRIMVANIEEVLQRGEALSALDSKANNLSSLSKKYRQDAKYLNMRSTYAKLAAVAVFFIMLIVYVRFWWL

[34] = molecular target: SMYD3, G9a-methylated (human) (UniProt Q9H7B4)
[35] = molecular target: SNFT, G9a-methylated (human) (UniProt Q9NR55)
[36] = molecular target: SSR4, G9a-methylated (human) (UniProt P51571)
[37] = molecular target: TCTA, G9a-methylated (human) (UniProt P57738)
Chain of TCTA, G9a-methylated (human) (P57738 whole entry): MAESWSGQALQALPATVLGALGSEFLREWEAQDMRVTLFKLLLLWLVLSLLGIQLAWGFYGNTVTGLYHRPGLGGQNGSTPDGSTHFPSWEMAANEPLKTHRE

[38] = molecular target: WDR45, G9a-methylated (human) (UniProt Q9Y484)
[39] = molecular target: YPEL5, G9a-methylated (human) (UniProt P62699)
Chain of YPEL5, G9a-methylated (human) (P62699 whole entry): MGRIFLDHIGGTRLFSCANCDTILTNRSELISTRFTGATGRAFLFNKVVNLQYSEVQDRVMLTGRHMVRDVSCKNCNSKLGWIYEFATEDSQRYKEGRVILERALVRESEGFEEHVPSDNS

[40] = molecular target: ZBP1, G9a-methylated (human) (UniProt Q9H171)
Chain of ZBP1, G9a-methylated (human) (Q9H171 whole entry): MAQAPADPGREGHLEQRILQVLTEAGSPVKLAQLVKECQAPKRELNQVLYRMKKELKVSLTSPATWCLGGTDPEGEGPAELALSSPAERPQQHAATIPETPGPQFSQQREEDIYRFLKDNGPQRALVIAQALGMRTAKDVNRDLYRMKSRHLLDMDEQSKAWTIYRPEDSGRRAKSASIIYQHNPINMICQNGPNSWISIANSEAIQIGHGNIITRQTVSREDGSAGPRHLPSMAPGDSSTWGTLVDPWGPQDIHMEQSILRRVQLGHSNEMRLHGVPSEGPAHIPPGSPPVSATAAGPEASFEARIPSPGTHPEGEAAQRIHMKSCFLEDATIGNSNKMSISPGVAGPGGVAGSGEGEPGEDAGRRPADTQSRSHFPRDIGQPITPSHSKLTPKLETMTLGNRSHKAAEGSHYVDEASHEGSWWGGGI

Chain of AP1S1, G9a-methylated (human) (P61966 whole entry): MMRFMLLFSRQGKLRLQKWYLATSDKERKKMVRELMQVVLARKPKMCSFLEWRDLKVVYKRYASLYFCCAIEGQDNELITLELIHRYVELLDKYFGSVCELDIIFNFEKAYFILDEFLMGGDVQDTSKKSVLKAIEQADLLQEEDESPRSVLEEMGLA
Chain of BLCAP, G9a-methylated (human) (P62952 whole entry): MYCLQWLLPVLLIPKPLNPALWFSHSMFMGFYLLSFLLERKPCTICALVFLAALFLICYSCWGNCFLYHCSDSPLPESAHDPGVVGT

G9a-GST [1]: 15.4
G9a-GST [2]: 25.5
G9a-GST [3]: 14.9
G9a-GST [4]: 18.6
G9a-GST [5]: 25.3
G9a-GST [6]: 12.6
G9a-GST [7]: 12.9
G9a-GST [8]: 49.5
G9a-GST [9]: 12.4
G9a-GST [10]: 13.7
G9a-GST [11]: 31.2
G9a-GST [12]: 37.9
G9a-GST [13]: 33.5
G9a-GST [14]: 24.1
G9a-GST [15]: 15.3
G9a-GST [16]: 12.3
G9a-GST [17]: 13.2
G9a-GST [18]: 13.7
G9a-GST [19]: 29.3
G9a-GST [20]: 42.9
G9a-GST [21]: 14
G9a-GST [22]: 21.9
G9a-GST [23]: 15.1
G9a-GST [24]: 14.1
G9a-GST [25]: 13.6
G9a-GST [26]: 16.5
G9a-GST [27]: 13.9
G9a-GST [28]: 20.2
G9a-GST [29]: 26.5
G9a-GST [30]: 12.4
G9a-GST [31]: 17.7
G9a-GST [32]: 18.4
G9a-GST [33]: 13.4
G9a-GST [34]: 16.3
G9a-GST [35]: 17.1
G9a-GST [36]: 13
G9a-GST [37]: 15.2
G9a-GST [38]: 15.2
G9a-GST [39]: 14.2
G9a-GST [40]: 14
Substance: 3× Flag-3×MBT (designed binder)
